Assay results: US7238711
“And” between values parts separate entries of the source, which are not always exact repeats. Equal entries are not always repeated. No end group written: not given here.

Experiments:
[1] = biological target: MCP-1 (human), P13500; experiment: cell-based or functional assay
[2] = biological target: T1, Duffy Antigen Receptor for Chemokines (DARC) (human), Q16570; experiment: estimated ka for red blood cells divided by average inhibitory ED50
T1 chain: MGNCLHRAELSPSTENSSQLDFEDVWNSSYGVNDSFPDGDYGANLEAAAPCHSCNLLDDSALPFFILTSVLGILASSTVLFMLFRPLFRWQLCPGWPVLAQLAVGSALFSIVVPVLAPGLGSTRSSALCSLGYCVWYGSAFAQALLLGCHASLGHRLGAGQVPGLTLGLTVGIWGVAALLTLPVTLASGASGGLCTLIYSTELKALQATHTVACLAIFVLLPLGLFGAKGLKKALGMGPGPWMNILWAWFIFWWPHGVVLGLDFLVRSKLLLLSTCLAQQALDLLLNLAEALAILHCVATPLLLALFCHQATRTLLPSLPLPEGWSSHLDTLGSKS

[3] = biological target: CCR5 (human), P51681; experiment: cell-based or functional assay
[4] = biological target: chemokine receptors
[5] = biological target: chemokine receptors on the surface of Jurkat cells; experiment: binding to Jurkat cells
[6] = biological target: chemokine receptors on THP-1 cells; experiment: binding to THP-1 cells
[7] = biological target: Duffy Antigen Receptor for Chemokines (DARC) (human) (UniProt Q16570); experiment: Duffy binding, against the LFL peptide
[8] = biological target: Duffy Antigen Receptor for Chemokines (DARC) (human) (UniProt Q16570); experiment: Duffy binding
[9] = biological target: CCR5 (human) (UniProt P51681); experiment: not stated (printed as affinity constant)
[10] = biological target: CXCR4 (human) (UniProt P61073); experiment: not stated (printed as affinity constant)
[11] = biological target: Duffy Antigen Receptor for Chemokines (DARC) (human) (UniProt Q16570); experiment: DARC binding, Table 18
[12] = biological target: chemokine receptors on THP-1 cells; experiment: receptors on THP-1 cells against DARC
[13] = biological target: Duffy Antigen Receptor for Chemokines (DARC) (human) (UniProt Q16570); experiment: DARC binding, red blood cells (given as association constant)
[14] = biological target: Duffy Antigen Receptor for Chemokines (DARC) (human) (UniProt Q16570); experiment: estimated ka for red blood cells divided by average inhibitory ED50
[15] = biological target: chemokine receptors on THP-1 cells; experiment: binding to THP-1 cells (given as association constant)
[16] = biological target: T1, Duffy Antigen Receptor for Chemokines …; experiment: ka for red blood cells divided by ka for THP-1 cells
[17] = biological target: CCR5 (human), P51681; experiment: 125I-RANTES Scatchard, parental HOS line (the filing suggests background CCR5); conditions: remark: other sources report otherwise
[18] = biological target: CCR5 (human), P51681; experiment: 12-point Scatchard, 0.03 nM 125I-RANTES with cold RANTES, 4° C., 2 hours; conditions: remark: other sources report otherwise
[19] = biological target: CCR5 (human), P51681; experiment: 125I-RANTES Scatchard, HOS CCR5 line; conditions: remark: other sources report otherwise
[20] = biological target: CCR5 (human), P51681; experiment: 12-point Scatchard, parental HOS line (the filing suggests background CCR5); conditions: remark: other sources report otherwise
[21] = biological target: CCR5 (human), P51681; experiment: 12-point Scatchard, HOS CCR5 line; conditions: remark: other sources report otherwise
[22] = biological target: cell surface molecule on THP-1 cells; experiment: binding of biotinylated peptide 3 to THP-1 cells, labeled streptavidin
[23] = biological target: T2, CXCR1 (human), P25024; experiment: biotin-labeled peptide at 10 µM on CHO transformants, 125I-streptavidin
T2 chain: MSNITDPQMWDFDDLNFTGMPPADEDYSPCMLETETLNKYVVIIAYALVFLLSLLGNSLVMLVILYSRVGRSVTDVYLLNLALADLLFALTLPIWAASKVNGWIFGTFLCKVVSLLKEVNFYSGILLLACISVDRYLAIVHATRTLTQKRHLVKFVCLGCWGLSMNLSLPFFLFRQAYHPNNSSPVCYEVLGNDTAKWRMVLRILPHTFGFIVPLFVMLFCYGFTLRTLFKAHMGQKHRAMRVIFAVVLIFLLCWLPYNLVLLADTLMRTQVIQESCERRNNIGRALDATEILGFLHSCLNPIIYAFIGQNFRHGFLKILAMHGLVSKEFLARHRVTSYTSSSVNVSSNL

[24] = biological target: T3, CXCR2 (human), P25025; experiment: as above
T3 chain: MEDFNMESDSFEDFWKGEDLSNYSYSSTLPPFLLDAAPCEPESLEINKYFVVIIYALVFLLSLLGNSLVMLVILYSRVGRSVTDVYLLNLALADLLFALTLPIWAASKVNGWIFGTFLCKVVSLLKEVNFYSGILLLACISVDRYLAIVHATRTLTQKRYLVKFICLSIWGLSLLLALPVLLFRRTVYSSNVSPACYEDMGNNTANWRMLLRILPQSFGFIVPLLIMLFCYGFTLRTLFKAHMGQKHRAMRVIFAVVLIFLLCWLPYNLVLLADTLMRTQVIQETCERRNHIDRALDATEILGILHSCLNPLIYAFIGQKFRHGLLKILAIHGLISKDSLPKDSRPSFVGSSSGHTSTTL

[25] = biological target: CCR5 (human), P51681; experiment: biotin-labeled peptide at 10 µM on HOS transformants, 125I-streptavidin
[26] = biological target: T4, CCR3 (human), P51677; experiment: as above
T4 chain: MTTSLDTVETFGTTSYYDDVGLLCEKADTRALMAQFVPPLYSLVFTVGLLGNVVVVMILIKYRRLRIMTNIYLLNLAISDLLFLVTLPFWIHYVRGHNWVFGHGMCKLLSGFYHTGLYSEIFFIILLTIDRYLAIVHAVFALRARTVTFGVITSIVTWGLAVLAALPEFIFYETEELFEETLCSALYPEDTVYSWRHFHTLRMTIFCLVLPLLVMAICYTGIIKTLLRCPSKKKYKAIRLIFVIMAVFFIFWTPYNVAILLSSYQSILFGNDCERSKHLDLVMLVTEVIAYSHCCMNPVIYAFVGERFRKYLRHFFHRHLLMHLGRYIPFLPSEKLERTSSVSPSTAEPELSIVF

[27] = biological target: CCR2 (human), P41597; experiment: as above
[28] = biological target: T5, CCR1 (human), P32246; experiment: as above
T5 chain: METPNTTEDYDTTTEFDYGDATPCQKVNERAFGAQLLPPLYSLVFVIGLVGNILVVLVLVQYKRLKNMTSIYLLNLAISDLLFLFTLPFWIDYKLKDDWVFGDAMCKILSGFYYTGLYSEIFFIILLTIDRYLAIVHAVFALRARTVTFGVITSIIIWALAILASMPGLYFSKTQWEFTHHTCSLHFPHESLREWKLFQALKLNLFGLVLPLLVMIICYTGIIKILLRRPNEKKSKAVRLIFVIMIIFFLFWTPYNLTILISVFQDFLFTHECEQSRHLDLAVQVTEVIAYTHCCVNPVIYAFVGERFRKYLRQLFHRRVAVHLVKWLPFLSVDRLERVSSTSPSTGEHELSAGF

[29] = biological target: T6, CCR4 (human), P51679; experiment: as above
T6 chain: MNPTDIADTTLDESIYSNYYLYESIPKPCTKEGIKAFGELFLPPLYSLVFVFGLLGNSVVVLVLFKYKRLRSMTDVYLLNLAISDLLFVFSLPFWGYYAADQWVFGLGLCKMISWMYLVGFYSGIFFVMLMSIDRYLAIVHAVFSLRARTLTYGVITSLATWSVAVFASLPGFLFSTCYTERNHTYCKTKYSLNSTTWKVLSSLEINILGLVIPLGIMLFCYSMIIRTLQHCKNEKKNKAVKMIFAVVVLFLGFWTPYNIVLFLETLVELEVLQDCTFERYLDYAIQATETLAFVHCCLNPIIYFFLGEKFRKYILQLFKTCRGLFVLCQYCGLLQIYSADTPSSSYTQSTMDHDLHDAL

[30] = biological target: T7, CXCR4 (human), P61073; experiment: as above
T7 chain: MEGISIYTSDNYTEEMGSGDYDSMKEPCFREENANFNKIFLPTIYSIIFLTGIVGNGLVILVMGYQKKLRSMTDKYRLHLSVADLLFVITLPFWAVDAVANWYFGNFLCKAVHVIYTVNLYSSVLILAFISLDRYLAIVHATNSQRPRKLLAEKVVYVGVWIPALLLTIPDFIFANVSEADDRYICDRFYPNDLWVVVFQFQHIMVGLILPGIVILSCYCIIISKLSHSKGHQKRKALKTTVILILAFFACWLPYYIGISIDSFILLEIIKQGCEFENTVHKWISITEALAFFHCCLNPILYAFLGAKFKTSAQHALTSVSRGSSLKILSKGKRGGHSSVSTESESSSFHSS

[31] = biological target: T1, Duffy Antigen Receptor for Chemokines …; experiment: DARC binding

CCR5 (human), P51681, sequence (P51681 whole entry): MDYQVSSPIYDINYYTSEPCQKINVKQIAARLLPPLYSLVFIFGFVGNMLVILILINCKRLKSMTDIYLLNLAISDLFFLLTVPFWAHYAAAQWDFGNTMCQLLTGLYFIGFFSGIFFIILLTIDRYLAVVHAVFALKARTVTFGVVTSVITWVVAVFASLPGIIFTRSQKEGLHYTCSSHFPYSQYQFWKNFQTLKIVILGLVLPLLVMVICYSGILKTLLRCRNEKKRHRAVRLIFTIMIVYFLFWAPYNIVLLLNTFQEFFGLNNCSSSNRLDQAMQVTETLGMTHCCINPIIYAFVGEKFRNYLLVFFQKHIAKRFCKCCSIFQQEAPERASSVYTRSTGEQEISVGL
CCR2 (human), P41597, sequence (P41597 whole entry): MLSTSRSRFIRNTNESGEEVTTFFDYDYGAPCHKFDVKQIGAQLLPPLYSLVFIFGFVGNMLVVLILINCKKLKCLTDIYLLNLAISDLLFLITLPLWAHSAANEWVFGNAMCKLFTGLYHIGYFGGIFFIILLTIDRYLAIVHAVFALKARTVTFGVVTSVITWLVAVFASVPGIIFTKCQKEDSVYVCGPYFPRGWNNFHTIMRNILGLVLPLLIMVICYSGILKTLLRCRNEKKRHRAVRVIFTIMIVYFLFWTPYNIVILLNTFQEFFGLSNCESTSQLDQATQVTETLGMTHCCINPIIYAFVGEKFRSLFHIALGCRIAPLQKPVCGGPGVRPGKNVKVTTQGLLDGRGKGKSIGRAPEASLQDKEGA
MCP-1 (human), P13500, sequence (P13500 24-99 limits assumed): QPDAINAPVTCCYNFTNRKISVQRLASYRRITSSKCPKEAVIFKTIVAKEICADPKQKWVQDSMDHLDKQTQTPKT
CCR5 (human), sequence (P51681 whole entry): as the sequence (P51681 whole entry) above

B1: Peptide 1[MCP-1] (peptide)
peptide: AQPDAINAPVTCC
modifications: not fully specified; cysteine pairing not given here
Binder B1 has an inhibition of MCP-1 induced THP-1 migration, peptide with the chemokine in the lower compartment [1] of 48%.

B2: peptide 3(1-12)[MCP-1] (peptide)
peptide: EICADPKQKWVQ
modifications: not fully specified
Binder B2 has a Duffy selectivity ([2]; remark: other sources report otherwise) of 1 and a decrease in HIV infection of THP-1 cells, immunofluorescence staining [3] of 83%.

B3: peptide 2(1-15)[MCP-1] (peptide)
peptide: SYRRITSSKCPKEAV
Work on B3 yielded an IC50 [4] of 0.4 µM, a binding sites per cell [5] of 55000 sites/cell and a binding sites per cell [6] of 130000 sites/cell.

B4: LRD peptide 2(1-15)[MCP-1] (peptide)
peptide: VAEKPCKSSTIRRYS
modifications: not fully specified (some residues)
B4 gave an IC50 [4] of 3 µM, a fold decrease in Duffy binding against LFL [7] of 100 fold and a Kd [8] of 25 µM. The Kd [9] was < 0.1 µM, the Kd [10] was < 0.1 µM and the DARC binding [11] was 18 µM.

B5: Pep2(1-15)[SDF1] (peptide)
peptide: HLKILNTPNCALQIV
B5 was tested, and the IC50 [4] was 35 µM.

B6: Pep2(1-14)[MIP1α] (peptide)
peptide: DYFETSSQCSKPGV
B6 was tested, and the IC50 [4] was > 100 µM and the binding sites per cell (sites per cell) [6] was 150000.

B7: Leu4Ile11 peptide 3(1-12)[MCP-1] (peptide)
peptide: EICLDPKQKWIQ
modifications: not fully specified
B7 was tested, and the Duffy selectivity [2] was 37.8 and the fold selectivity over DARC [12] was > 20 fold.

B8: CRD-Cys13Leu4Ile11 peptide 3(3-12)[MCP-1] (peptide)
peptide: CQIWKQKPDLC
modifications: not fully specified (some residues, bridges); cysteine pairing not given here
In the case of B8, the Kd [13] is reported as 90 µM, the Duffy selectivity [14] is reported as > 100 and the Kd [15] is reported as 0.1 to 0.5 µM. It also gave a binding sites per cell (sites per cell) [6] of 150000.

B9: Pep2(1-16)[IL8] (peptide)
peptide: ELRVIESGPHCANTEI
modifications: not fully specified
In the case of B9, the Duffy selectivity [16] is reported as < 1.

B10: Pep3(3-12)[MCP-1] (peptide)
peptide: CADPKQKWVQ
modifications: not fully specified
B10 showed a Duffy selectivity [2] of 1.21.

B11: Ser7 peptide 3(1-12)[MCP-1] (peptide)
peptide: EICADPSQKWVQ
modifications: not fully specified
With B11 the Duffy selectivity [2] was 2.

B12: Ser7Glu8Glu9 peptide 3(1-12)[MCP-1] (peptide)
peptide: EICADPSEEWVQ
modifications: not fully specified
Binder B12 has a Duffy selectivity [2] of 0.59.

B13: CRD-Cys13pep3[3-12] (peptide)
peptide: CQVWKQKPDAC
modifications: not fully specified (some residues, bridges); cysteine pairing not given here
For B13, the Duffy selectivity [14] was 8.82.

B14: RANTES, P13501 24-91 (ligand, UniProt P13501 24-91, looked up)
chain: SPYSSDTTPCCFAYIARPLPRAHIKEYFYTSGKCSNPAVVFVTRKNRQVCANPEKKWVREYINSLEMS
For B14, the binding sites per cell (sites per cell) [17] was 80000, the Kd [18] was 0.001 µM and the binding sites per cell (sites per cell) [19] was 200000 and 400000. The binding sites per cell (sites per cell) [20] was 100000 and the binding sites per cell (sites per cell) [21] was 200000.

B15: N-terminal biotin conjugate of the sequence n'-…-c' (peptide)
peptide: CLDPKQKWIQC
modifications: not fully specified (N-terminus); cysteine pairing not given here
For B15, the binding sites per cell (receptors/cell) [22] was 1000, the Kd [23] was > 10 µM and the Kd [24] was > 10 µM. The Kd [25] was > 10 µM, the Kd [26] was > 10 µM and the Kd [27] was > 10 µM. For the same binder, the Kd [28] was > 10 µM, the Kd [29] was > 10 µM and the Kd [30] was > 10 µM.

B16: Ser10 variant of peptide 2(1-15)[MCP-1] (peptide)
peptide: SYRRITSSKSPKEAV
modifications: not fully specified
Binder B16 has a DARC binding [31] of 20 to 100 µM.
